Measurements reported in the supplement of paper PMC9170038.

System: MS2 coat protein
Test: apparent KD of MS2 coat protein; designed switch direction (-1 OFF switch, 1 ON switch): -1; higher = weaker reporter binding
How it was run: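 Normalised cluster fluorescence was curve-fitted, and each design's median over clusters is its apparent KD. Before this, SNAP-549-labelled MS2 coat protein was titrated from 0.7 or 1.5 nM, doubling to 3 µM, over RNA switches transcribed on Illumina chips by stalled E. coli RNA polymerase. Titrations had no input, 200 uM small-molecule ligand, or an oligonucleotide input, and steps lasted 0.8–1.5 h (lowest) to 10–20 min (highest).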

[1] = input ligand: microRNA oligo, concentration not stated
[2] = Eterna round: R95, input ligand: FMN 200 uM
[3] = Eterna round: R95, input ligand: microRNA oligo, concentration not stated
[4] = Eterna round: R95, input ligand: none

Sequence | apparent KD of MS2 coat protein (input ligand: FMN 200 uM) [µM] | apparent KD of MS2 coat protein [1] [µM] | apparent KD of MS2 coat protein (input ligand: none) [µM] | apparent KD of MS2 coat protein [2] [µM] | apparent KD of MS2 coat protein [3] [µM] | apparent KD of MS2 coat protein [4] [µM]
UCUCGCUGGCGAGGAUAUCCUGUGCGGUUCCGGCUCGUGUCUGUUACAUGAGGAUCACCCAUGUGGGAGAAGGUGUCUGUGGCC [Design 96] (Eterna round: R96, puzzle: Exclusion NG 2) | 0.0167 | 0.0154 | 0.0188 |  |  | 
GGUUUAGUAGAGGAUAUGUCACUGUCGCAGGAGACAGAAGGCUGCACAUGAGGAUCACCCAUGUCGGUAAUGAG [Eternabot (L1) Solution 89] (Eterna round: R97, puzzle: Exclusion 6) | 0.0218 |  | 0.0163 |  |  | 
GGUUGGCGAGGAUAUACAUGAGGAUCACCCAUGUGAGAGAAAAAAGUGAGGCAGAAAAGUAGAAGGCGCUGACG [salish99_ex3_r3_031] (puzzle: Exclusion 3) |  |  |  | 0.137 | 0.0298 | 0.0968
AGGAAUGAAGGAUAUACAUGAGGAUCACCCAUGUAAAAGGAAAGAGGUGAUGGAGAUAGUAGAAGGUCAAGAAG [JR_Exclusion3_Sub004] (puzzle: Exclusion 3) |  |  |  | 0.0942 | 0.135 | 0.204
UACGUGUCAGGAUAUUUGAAGCGAAUCACGAGCAUUCGCGUGGAGAAGGGACAUGAGGAUCACCCAUGUAGGCG [Eternabot (L1) Solution 32] (Eterna round: R97, puzzle: Exclusion 4) | 0.37 |  | 0.242 |  |  | 
ACAUGAGGAUCACCCAUGUGACAAGAAUGGCUGACACAGAGAUAGGAUAUAGGUGCAUAUCUAACCUAGAAGGGUCAUGACUGG [Deportation 76 - Jieux - Exclusion NG 3] (Eterna round: R96, puzzle: Exclusion NG 3) | 0.0402 | 0.0233 | 0.0265 |  |  | 
UACAUGAGGAUCACCCAUGUUUUAUCAUGUGUAAUAAUAAUGUAGGAUAUGUAUUUAUUUAUUUAACAGAAGGACAAUAAUAAA [JMF's solution 3] (Eterna round: R96, puzzle: Exclusion NG 3) | 0.462 | 0.435 | 0.423 |  |  | 
GGUAUAUGAGGAUAUAGAUUCCUCGACAUGAGGAUCACCCAUGUAAGAUUGGGCCUAGAACUAGAAGGCGUGGCUU [Eternabot (L1) Solution 77] (Eterna round: R97, puzzle: Exclusion 5) | 0.0721 |  | 0.128 |  |  | 
UAUAUAUAGUAAGGAUAUGUAUAUAUUCUAUAAACAGAAGGUACUGACAUGAGGAUCACCCAUGUUUUAGUGUGGGCAUGUAGA [JMF's solution 62] (Eterna round: R96, puzzle: Exclusion NG 1) |  | 0.0274 |  |  |  | 
AAAGAACUAGGAUAUCGCGCUACAGACAUGAGGAUCACCCAUGUAAUCGCAUGUCAAGUUUGAGAAGGAGUGAAGA [Usissodi] (puzzle: Exclusion 5) |  |  |  | 0.0215 | 0.0119 | 0.0099
ACUGUAGAAGGAUAUGCUUCGACUCACAUGAGGAUCACCCAUGUCUUCGUGCAGUCGUCUGCAGAAGGUCUCCAGU [EX5 C.7] (Eterna round: R97, puzzle: Exclusion 5) | 1.05 |  | 0.956 |  |  | 
AGAGUGCUGCGAGGAUAUACAUGAGGAUCACCCAUGUUUACCUGUGAGGCAAAGCCUCACAGGUUGUAGAAGGCGCAGUACUCA [Mat - Exclusion NG 2 - Mod of JL - D42] (Eterna round: R96, puzzle: Exclusion NG 2) | 0.00939 | 0.0101 | 0.0194 |  |  | 
CCUGCGGACAAAGGAUAUUGCGGUGGCCGGCUCAGUAAAUCUAGCCAACAUGAGGAUCACCCAUGUAAGAAGGUUGCCGUUGGU [Qudice] (Eterna round: R96, puzzle: Exclusion NG 2) |  | 0.017 |  |  |  | 
GUUGUUUAUGUAGGAUAUGCCUGGCGUGCCUUAGCAGAAGGACAUGAGGAUCACCCAUGUAUUGCGGUCUGCGUUCAGAUCGCU [salish99_ExNG1_r4_021] (Eterna round: R96, puzzle: Exclusion NG 1) | 0.037 | 0.0251 | 0.0296 |  |  | 
GAAUACAAGCAAAGAUCCUACAUGAGGAUCACCCAUGUGCUCGUCUUGUAAAGUACUAUCACGAAAGUGAUAGUACA [Mat - Sensor v3 - turn-off var 1 - Eli Mod - D78] (puzzle: Sensor v3, turn-off variant 1) |  |  |  | 0.0767 | 0.0169 | 0.0601
UAAAAUAGUGUGAGGAUAUGCUGGUCCUUGGAUCAGCAGAAGGCACAUGAGGAUCACCCAUGUAGAUAAUAAUA [Mat - Exclusion 4 - JL Mod - D26] (puzzle: Brourd's mod of Exclusion 4) |  |  |  | 0.189 | 0.0496 | 0.078
AGCUGUGGCCGAGGAUAUCCACAUGAGGAUCACCCAUGUCGAUACCAGCGUAAGCUGGAUAUAAGGGAGAAGGCGGUCUCAGCA [Eli eng2 - 053] (Eterna round: R96, puzzle: Exclusion NG 2) | 0.0062 | 0.00651 | 0.0105 |  |  | 
UGCUACAUGAGGAUCACCCAUGUAAUGUGGGAUUCGUUAGGACAGGAUAUGAUUGUAUUGUUUUUUCAGAAGGGUCAUUACUUU [JR_ExcNG3_Sub011] (Eterna round: R96, puzzle: Exclusion NG 3) | 0.0744 | 0.0346 | 0.0529 |  |  | 
AAUAAGGGAGGAUAUACAUGAGGAUCACCCAUGUUUGUAAUUUAAUUCGGGAGUAUUAGUAGAAGGCCCAAUAA [lam1] (Eterna round: R97, puzzle: Exclusion 3) | 0.278 |  | 0.0595 |  |  | 
CAUACUCAAGUCAGGAUAUACAGUCGGAUACGGGUGUAGAAGGGACAUGAGGAUCACCCAUGUAGAGAGUAAAG [EX-4 Malc #23] (puzzle: Brourd's mod of Exclusion 4) |  |  |  | 0.087 | 0.0311 | 0.0538
UACUUACGAGGAUAUCGAUUGUGGUACAUGAGGAUCACCCAUGUAUGUGAUAUUGUAUUUCGAGAAGGCGUUCAGU [JR_E5_Sub061] (puzzle: Exclusion 5) |  |  |  |  | 0.0227 | 
GGUCGUAUGAGUAGUCCUCAUUGAAGAGAUUGGUAAGAUACAUGAGGAUCACCCAUGUUUGAACAAGCUUUUGCUCU [JR_Sv3TOV2_Sub008] (Eterna round: R96, puzzle: Sensor v3, turn-off variant 2) | 0.159 | 0.0543 | 0.118 |  |  | 
ACAUGUCAUCGAGGAUAUUGUACACAUGAGGAUCACCCAUGUAUUCGGUUGCUCUAGCAUGAGUUCGAGAAGGCGAUGUACAUU [Ex NG2 #83] (Eterna round: R96, puzzle: Exclusion NG 2) | 0.153 | 0.134 | 0.194 |  |  | 
AAAUAGCAUGAGGAUAUUGAACUGUAUUCAGUACGAGAAGGCAUGACAUGAGGAUCACCCAUGUUUUGUUGGGA [EX6 #5] (Eterna round: R97, puzzle: Exclusion 6) | 0.126 |  | 0.027 |  |  | 
AAGCAUUGCCAAAGGUAGUGCUUUACAUGAGGAUCACCCAUGUAGGAUAUGGUAGGCAAAGCUUACCAGAAGGACAUGAUAAUU [Mat - Exclusion NG 3 - Mod of JL - D13] (Eterna round: R96, puzzle: Exclusion NG 3) | 0.151 | 0.0474 | 0.0479 |  |  | 
ACUUACCAUGUCAGGAUAUGUACUUAGAACGCGAUGCAGAAGGGACAUGAGGAUCACCCAUGUAAUGUCUGAUA [Eternabot (L2) Solution 2] (Eterna round: R97, puzzle: Brourd's mod of Exclusion 4) | 0.0516 |  | 0.0211 |  |  | 
AAAAUGUAAGGAUAUGGCCGGGACCCAGGGUUUGGACCCGGCUAGAAGGUACAUGAGGAUCACCCAUGUAAGAA [Excls4-VIII] (puzzle: Exclusion 4) |  |  |  |  | 0.0161 | 
UUACUAUGCCGCCUAAUAGCUUUUUGCUCGUCUUAUAUUACAUGAGGAUCACCCAUGUAGAUCAUGUGGCGUGACCU [JL ViennaUCT Maridi mod 3] (puzzle: Sensor v3, turn-off variant 2) |  |  |  | 0.216 | 0.042 | 0.206
UUUUUAUAUGAAGGAUAUACUUAACAUGAGGAUCACCCAUGUGGUGUUGUGAGUGAGUGAGUUUAGUAGAAGGUCAAUGAUUUG [JMF's solution 63] (Eterna round: R96, puzzle: Exclusion NG 2) | 0.894 | 0.237 | 0.563 |  |  | 
